Results reported in patent US20040253689A1 (published 2004).

Key:
^125I-IGF-I = biological target: T1, ^125I-IGF-I (human, UniProt P05019 49-118, radioiodinated (^125I, 2000 Ci/mmol); labelled residue not stated); experiment: solution binding of ^125I-IGF-I, charcoal separation; reference wild-type CHO-hIGFBP-3
T1 construct: also called insulin growth factor-I
Description: (§1) Binding of ¹²⁵I-IGF-I and ¹²⁵I-IGF-II in solution —¹²⁵I-IGF-I or ¹²⁵I-IGF-II (˜25,000 cpm) was incubated overnight at 4° C. with different concentrations of recombinant hIGFBP-3 standard (R&D Systems), or purified wild-type or mutant CHO-hIGFBP-3 in 0.4 ml phosphate-buffered saline supplemented with 0.2% fatty acid-free bovine serum albumin. Following the addition of 0.5 ml of a 5% suspension of activated charcoal (Sigma) to adsorb unbound IGF tracer, the samples were centrifuged. Radioactivity bound to hIGFBP-3 remained in the charcoal supernate and was quantified in a gamma counter (Yang et al. (1993), supra). DNA synthesis—DNA synthesis was measured in CCL64 cells by the incorporation of the thymidine analog BrdU into newly synthesized as previously described (Wu et al. (2000), supra). Quiescent cells in serum-free medium were stimulated to synthesize DNA by adding EGF. EGF was used to stimulate proliferation instead of serum to avoid introducing IGFs. In brief, the cells were plated in 96-well microtiter plates (30,000 cells/well) in 0.2 ml of DMEM containing 10% fetal calf serum, and incubated for 3 h at 37° C. […] BrdU (10 μM) was added for 2-3 h, the cells were fixed, and BrdU incorporation was quantified by an immunocolorimetric assay using monoclonal antibody to BrdU conjugated to peroxidase. […] The absorbance at 450 nm was measured in a scanning multiwell spectrophotometer.

^125I-IGF-II = biological target: T2, ^125I-IGF-II (human, UniProt P01344 25-91, radioiodinated (^125I, 2000 Ci/mmol); labelled residue not stated); experiment: solution binding of ^125I-IGF-II, charcoal separation; reference wild-type CHO-hIGFBP-3
T2 construct: also called insulin growth factor-II
Description: as §1

T1 sequence (P05019 49-118 limits assumed): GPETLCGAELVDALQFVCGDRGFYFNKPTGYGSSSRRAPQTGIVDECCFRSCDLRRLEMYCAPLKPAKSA
T2 sequence (P01344 25-91 limits assumed): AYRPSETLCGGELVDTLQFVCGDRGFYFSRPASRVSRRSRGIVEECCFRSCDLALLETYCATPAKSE

fold lower concentration of wild-type CHO-hIGFBP-3 that still bound more than the mutant at 200 ng/ml (^125I-IGF-I) | fold lower concentration of wild-type CHO-hIGFBP-3 that still bound more than the mutant at 200 ng/ml (^125I-IGF-II) | Binder
> 80 fold | > 80 fold | 4m-hIGFBP-3 (R75A, L77A, L80A, L81A mutant CHO-hIGFBP-3) (other, human, mature; Same tagged construct as the wild-type CHO-hIGFBP-3, with four alanine substitutions; also called quadruple mutant) HHHHHHGMASMTGGQQMGRDLYDDDDKGASSAGLGPVVRCEPCDARALAQCAPPPAVCAELVREPGCGCCLTCALSEGQPCGIYTERCGSGLRCQPSPDEAAPAQAAADGRGLCVNASAVSRLRAYLLPAPPAPGNASESEEDRSAGSVESPSVSSTHRVSDPKFHPLHSKIIIIKKGHAKDSQRYKVDYESQSTDTQNFSSESKRETEYGPCRREMEDTLNHLKFLNVLSPRGVHIPNCDKKGFYKKKQCRPSKGRKRGFCWCVDKYGQPLPGYTTKGKEDVHCYSMQSK
80 fold | > 80 fold | 6m-hIGFBP-3 (I56A, Y57A, R75A, L77A, L80A, L81A mutant CHO-hIGFBP-3) (other, human, mature; Same tagged construct as the wild-type CHO-hIGFBP-3, with six alanine substitutions; Positions count on mature hIGFBP-3, not on the precursor; also called 6m-CHO-hIGFBP-3) HHHHHHGMASMTGGQQMGRDLYDDDDKGASSAGLGPVVRCEPCDARALAQCAPPPAVCAELVREPGCGCCLTCALSEGQPCGAATERCGSGLRCQPSPDEAAPAQAAADGRGLCVNASAVSRLRAYLLPAPPAPGNASESEEDRSAGSVESPSVSSTHRVSDPKFHPLHSKIIIIKKGHAKDSQRYKVDYESQSTDTQNFSSESKRETEYGPCRREMEDTLNHLKFLNVLSPRGVHIPNCDKKGFYKKKQCRPSKGRKRGFCWCVDKYGQPLPGYTTKGKEDVHCYSMQSK
